Paper PMC2665062 (The Journal of Biological Chemistry, 2009)

B1: Plasmodium falciparum nucleosome assembly protein PfNapL, wild type (natural protein, UniProt Q8I608 1-347, looked up)
chain: MAANEGNQPIPPEEEKEISSLLESIKIDDDKMTDLTEEQKETLKKLKLYQKEYYDYESKFEYELFLLRQKYHDLYGPIYDKRREALVGNGEAKIGTPNLPEFWLRALRNNNTVSHVIEDHDEEILVYLNDIRCDYIKKNKEKKEGFILSFYFATNPFFSNSVLTKTYHMKCVDCDNEPVLLHTEATVIDWYDNKNILKKNVVKKQHNKNSREVKTVQQTVNRDSFFHFFTSHKVPNSNVIKQLSKHEVAQLEMIIEGDYEVALTIKERIIPYAVDYYLGIIIESESNSIVSDVDSSYSSSENNSNYNSYESNNSAYNDENSNVDTNEYDDNEEEEEGAKSNEDPLTS
B2: PfNapL K266A (natural protein)
chain: MAANEGNQPIPPEEEKEISSLLESIKIDDDKMTDLTEEQKETLKKLKLYQKEYYDYESKFEYELFLLRQKYHDLYGPIYDKRREALVGNGEAKIGTPNLPEFWLRALRNNNTVSHVIEDHDEEILVYLNDIRCDYIKKNKEKKEGFILSFYFATNPFFSNSVLTKTYHMKCVDCDNEPVLLHTEATVIDWYDNKNILKKNVVKKQHNKNSREVKTVQQTVNRDSFFHFFTSHKVPNSNVIKQLSKHEVAQLEMIIEGDYEVALTIAERIIPYAVDYYLGIIIESESNSIVSDVDSSYSSSENNSNYNSYESNNSAYNDENSNVDTNEYDDNEEEEEGAKSNEDPLTS
B3: PfNapL T230A (natural protein)
chain: MAANEGNQPIPPEEEKEISSLLESIKIDDDKMTDLTEEQKETLKKLKLYQKEYYDYESKFEYELFLLRQKYHDLYGPIYDKRREALVGNGEAKIGTPNLPEFWLRALRNNNTVSHVIEDHDEEILVYLNDIRCDYIKKNKEKKEGFILSFYFATNPFFSNSVLTKTYHMKCVDCDNEPVLLHTEATVIDWYDNKNILKKNVVKKQHNKNSREVKTVQQTVNRDSFFHFFASHKVPNSNVIKQLSKHEVAQLEMIIEGDYEVALTIKERIIPYAVDYYLGIIIESESNSIVSDVDSSYSSSENNSNYNSYESNNSAYNDENSNVDTNEYDDNEEEEEGAKSNEDPLTS
B4: PfNapL H227A (natural protein)
chain: MAANEGNQPIPPEEEKEISSLLESIKIDDDKMTDLTEEQKETLKKLKLYQKEYYDYESKFEYELFLLRQKYHDLYGPIYDKRREALVGNGEAKIGTPNLPEFWLRALRNNNTVSHVIEDHDEEILVYLNDIRCDYIKKNKEKKEGFILSFYFATNPFFSNSVLTKTYHMKCVDCDNEPVLLHTEATVIDWYDNKNILKKNVVKKQHNKNSREVKTVQQTVNRDSFFAFFTSHKVPNSNVIKQLSKHEVAQLEMIIEGDYEVALTIKERIIPYAVDYYLGIIIESESNSIVSDVDSSYSSSENNSNYNSYESNNSAYNDENSNVDTNEYDDNEEEEEGAKSNEDPLTS
B5: PfNapL E260A (natural protein)
chain: MAANEGNQPIPPEEEKEISSLLESIKIDDDKMTDLTEEQKETLKKLKLYQKEYYDYESKFEYELFLLRQKYHDLYGPIYDKRREALVGNGEAKIGTPNLPEFWLRALRNNNTVSHVIEDHDEEILVYLNDIRCDYIKKNKEKKEGFILSFYFATNPFFSNSVLTKTYHMKCVDCDNEPVLLHTEATVIDWYDNKNILKKNVVKKQHNKNSREVKTVQQTVNRDSFFHFFTSHKVPNSNVIKQLSKHEVAQLEMIIEGDYAVALTIKERIIPYAVDYYLGIIIESESNSIVSDVDSSYSSSENNSNYNSYESNNSAYNDENSNVDTNEYDDNEEEEEGAKSNEDPLTS
B6: PfNapL Y259A (natural protein)
chain: MAANEGNQPIPPEEEKEISSLLESIKIDDDKMTDLTEEQKETLKKLKLYQKEYYDYESKFEYELFLLRQKYHDLYGPIYDKRREALVGNGEAKIGTPNLPEFWLRALRNNNTVSHVIEDHDEEILVYLNDIRCDYIKKNKEKKEGFILSFYFATNPFFSNSVLTKTYHMKCVDCDNEPVLLHTEATVIDWYDNKNILKKNVVKKQHNKNSREVKTVQQTVNRDSFFHFFTSHKVPNSNVIKQLSKHEVAQLEMIIEGDAEVALTIKERIIPYAVDYYLGIIIESESNSIVSDVDSSYSSSENNSNYNSYESNNSAYNDENSNVDTNEYDDNEEEEEGAKSNEDPLTS
B7: PfNapL D192A (natural protein)
chain: MAANEGNQPIPPEEEKEISSLLESIKIDDDKMTDLTEEQKETLKKLKLYQKEYYDYESKFEYELFLLRQKYHDLYGPIYDKRREALVGNGEAKIGTPNLPEFWLRALRNNNTVSHVIEDHDEEILVYLNDIRCDYIKKNKEKKEGFILSFYFATNPFFSNSVLTKTYHMKCVDCDNEPVLLHTEATVIDWYANKNILKKNVVKKQHNKNSREVKTVQQTVNRDSFFHFFTSHKVPNSNVIKQLSKHEVAQLEMIIEGDYEVALTIKERIIPYAVDYYLGIIIESESNSIVSDVDSSYSSSENNSNYNSYESNNSAYNDENSNVDTNEYDDNEEEEEGAKSNEDPLTS

Target: the molecule itself
Test: crystal structure

**Q.** Does B1 bind?
**A.** Result: binds

target: histone H4 (calf thymus) (calf, UniProt P62803 1-103); test: ELISA

**Q.** Does B1 bind?
**A.** Result: binds

**Q.** Does B2 bind?
**A.** Result: binds

**Q.** Does B3 bind?
**A.** Result: binds

**Q.** Does B4 bind?
**A.** Result: binds

**Q.** Does B5 bind?
**A.** Result: binds

**Q.** Does B6 bind?
**A.** Result: binds

**Q.** Does B7 bind?
**A.** Result: binds
